Source: article doi:10.1101/2021.05.04.442675

Biological target: FLAG-tagged MIWI piRISC made in BmN4 cells (mouse) (UniProt Q9JMB7)
Sequence (Q9JMB7 whole entry): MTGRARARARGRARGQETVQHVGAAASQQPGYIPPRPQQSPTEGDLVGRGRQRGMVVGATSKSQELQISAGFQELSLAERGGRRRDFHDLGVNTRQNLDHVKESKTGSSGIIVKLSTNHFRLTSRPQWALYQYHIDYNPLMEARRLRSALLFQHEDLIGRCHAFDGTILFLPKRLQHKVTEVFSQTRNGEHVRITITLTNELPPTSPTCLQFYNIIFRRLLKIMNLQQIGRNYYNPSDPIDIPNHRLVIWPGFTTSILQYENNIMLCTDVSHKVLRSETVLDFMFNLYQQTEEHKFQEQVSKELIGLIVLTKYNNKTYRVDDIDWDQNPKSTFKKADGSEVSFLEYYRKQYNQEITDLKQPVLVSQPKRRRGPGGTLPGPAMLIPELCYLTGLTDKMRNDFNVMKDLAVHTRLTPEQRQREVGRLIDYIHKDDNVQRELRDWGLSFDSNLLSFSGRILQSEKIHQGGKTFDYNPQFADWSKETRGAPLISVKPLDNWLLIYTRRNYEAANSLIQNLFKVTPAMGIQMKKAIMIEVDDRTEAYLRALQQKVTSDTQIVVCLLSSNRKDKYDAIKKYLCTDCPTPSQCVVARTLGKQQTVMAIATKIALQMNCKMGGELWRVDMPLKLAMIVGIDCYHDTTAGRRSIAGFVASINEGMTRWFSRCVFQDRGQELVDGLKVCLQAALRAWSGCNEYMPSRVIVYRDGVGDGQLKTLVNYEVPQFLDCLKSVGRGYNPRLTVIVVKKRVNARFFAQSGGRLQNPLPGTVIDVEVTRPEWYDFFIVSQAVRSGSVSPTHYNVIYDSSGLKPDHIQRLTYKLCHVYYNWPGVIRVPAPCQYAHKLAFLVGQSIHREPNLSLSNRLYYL

increase in the amount of target cleaved by MIWI piRISC (S.D. = 0.1; p = 0.0027): 2.6 fold
Substance: BmGtsf1-like, silk moth (Bombyx mori), V5SBP-tagged recombinant (natural protein)
